Experimental data: the supplement of paper PMC11780869

Tested on: Bacillus subtilis
Assay: cleaved RNA product abundance (RNA/gDNA barcode ratio) relative to median wild-type variant (ratio to wild type); higher = more accumulation of the downstream cleavage product
Settings: cleavage site: cggR-gapA (positions -7 to +36 mutated)
Method: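 MPRA in B. subtilis. Mutagenized RNase Y cleavage-site regions (9% mutation rate) were inserted into a barcoded reporter mRNA (truncated aprE or tetM). Cells were grown in LB at 37°C to OD600 0.3. The cleaved RNA isoform was gel-purified and its barcodes counted; the RNA:gDNA barcode ratio was normalised to the median wild-type variant, and the median over barcodes is reported per variant. The printed sequence is the variable window only; the reporter flanks are not printed.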

[1] = experiment (reporter, strain, medium): exp 2b: truncated aprE reporter, strain BJT200
[2] = experiment (reporter, strain, medium): exp 4a: truncated aprE reporter, strain BJT201 with 2% xylose (RNase J1 expressed)

| Sequence | cleaved RNA product abundance [1] | cleaved RNA product abundance [2] | cleaved RNA product abundance (experiment (reporter, strain, medium): exp 6: tetM reporter, strain 168) |
| --- | --- | --- | --- |
| ACAGACGAAGGAGCCGCAAAGAAGTAATTAAGGAATGAATAATCCCTCAATATAAATATCTCTCACTTATTTAAA | 0.0931 | 0.0879 | – |
| ACAGACGAAGGAGCCGCAAAGAAGTAATTAAGGCATGAATAATCCCTCAATATAAATATCTCTCACTTATTTAAA | – | 0.0969 | – |
| ACAGACGAAGGAGCCGCAAAGAAGTAATTAAGGGAAGAATAATCCCTCAATATAAATATCTCTCACTTATTTAAA | 0.117 | 0.263 | – |
| ACAGACGAAGGAGCCGCAAAGAAGTAATTAAGGGACGAATAATCCCTCAATATAAATATCTCTCACTTATTTAAA | 0.139 | 0.175 | – |
| ACAGACGAAGGAGCCGCAAAGAAGTAATTAAGGGATAAATAATCCCTCAATATAAATATCTCTCACTTATTTAAA | 0.256 | 0.219 | – |
| ACAGACGAAGGAGCCGCAAAGAAGTAATTAAGGGATCAATAATCCCTCAATATAAATATCTCTCACTTATTTAAA | 0.181 | 0.305 | – |
| ACAGACGAAGGAGCCGCAAAGAAGTAATTAAGGGATGAAAAATCCCTCAATATAAATATCTCTCACTTATTTAAA | 0.163 | 0.272 | – |
| ACAGACGAAGGAGCCGCAAAGAAGTAATTAAGGGATGAACAATCCCTCAATATAAATATCTCTCACTTATTTAAA | 0.181 | – | – |
| ACAGACGAAGGAGCCGCAAAGAAGTAATTAAGGGATGAATAAACCCTCAATATAAATATCTCTCACTTATTTAAA | 0.166 | 0.198 | – |
| ACAGACGAAGGAGCCGCAAAGAAGTAATTAAGGGATGAATAAACCCTCATTATAAATATCTCTCACTTATTTAAA | – | 0.148 | – |
| ACAGACGAAGGAGCCGCAAAGAAGTAATTAAGGGATGAATAACCCCTCAATATAAATATCTCTCACTTATTTAAA | – | 0.158 | – |
| ACAGACGAAGGAGCCGCAAAGAAGTAATTAAGGGATGAATAAGCCCTCAATATAAATATCTCTCACTTATTTAAA | – | 0.149 | – |
| ACAGACGAAGGAGCCGCAAAGAAGTAATTAAGGGATGAATAATACCTCAATATAAATATCTCTCACTTATTTAAA | 0.115 | 0.141 | – |
| ACAGACGAAGGAGCCGCAAAGAAGTAATTAAGGGATGAATAATCACTCAATATAAATATCTCTCACTTATTTAAA | – | 0.109 | – |
| ACAGACGAAGGAGCCGCAAAGAAGTAATTAAGGGATGAATAATCCATCAATATAAATATCTCTCACTTATTTAAA | 0.148 | 0.183 | – |
| ACAGACGAAGGAGCCGCAAAGAAGTAATTAAGGGATGAATAATCCCTAAATATAAATATCTCTCACTTATTTAAA | – | 0.234 | – |
| ACAGACGAAGGAGCCGCAAAGAAGTAATTAAGGGATGAATAATCCCTCAAAATAAATATCTCTCACTTATTTAAA | 0.16 | 0.215 | – |
| ACAGACGAAGGAGCCGCAAAGAAGTAATTAAGGGATGAATAATCCCTCAACATAAATATCTCTCACTTATTTAAA | – | 0.21 | – |
| ACAGACGAAGGAGCCGCAAAGAAGTAATTAAGGGATGAATAATCCCTCAATATAAAAATCTCTCACTTATTTAAA | – | 0.282 | – |

| Sequence | cleaved RNA product abundance [1] | cleaved RNA product abundance [2] | cleaved RNA product abundance (experiment (reporter, strain, medium): exp 6: tetM reporter, strain 168) |
| --- | --- | --- | --- |
| ACAGACGAAGGAGCCGCAAAGAAGTAATTAAGGGATGAATAATCCCTCAATATAAACATCTCTCACTTATTTAAA | – | 0.264 | – |
| ACAGACGAAGGAGCCGCAAAGAAGTAATTAAGGGATGAATAATCCCTCAATATAAATAGCTCTCACTTATTTAAA | – | 0.15 | – |
| ACAGACGAAGGAGCCGCAAAGAAGTAATTAAGGGATGAATAATCCCTCAATATAAATATCTCTCACTTATTTAAA | 0.241 | 0.333 | 0.32 |
| ACAGACGAAGGAGCCGCAAAGAAGTAATTAAGGGATGAATAATCCCTCAATATAAATTTCTCTCACTTATTTAAA | – | 0.122 | – |
| ACAGACGAAGGAGCCGCAAAGAAGTAATTAAGGGATGAATAATCCCTCAATATAACTATCTCTCACTTATTTAAA | – | 0.215 | – |
| ACAGACGAAGGAGCCGCAAAGAAGTAATTAAGGGATGAATAATCCCTCAATATAAGTATCTCTCACTTATTTAAA | 0.119 | – | – |
| ACAGACGAAGGAGCCGCAAAGAAGTAATTAAGGGATGAATAATCCCTCAATATAATTATCTCTCACTTATTTAAA | 0.151 | 0.199 | – |
| ACAGACGAAGGAGCCGCAAAGAAGTAATTAAGGGATGAATAATCCCTCAATATAGATATCTCTCACTTATTTAAA | – | 0.303 | – |
| ACAGACGAAGGAGCCGCAAAGAAGTAATTAAGGGATGAATAATCCCTCAATATATATATCTCTCACTTATTTAAA | 0.2 | 0.278 | – |
| ACAGACGAAGGAGCCGCAAAGAAGTAATTAAGGGATGAATAATCCCTCAATGTAAATATCTCTCACTTATTTAAA | – | 0.114 | – |
| ACAGACGAAGGAGCCGCAAAGAAGTAATTAAGGGATGAATAATCCCTCACTATAAATATCTCTCACTTATTTAAA | 0.135 | 0.168 | – |
| ACAGACGAAGGAGCCGCAAAGAAGTAATTAAGGGATGAATAATCCCTCAGTATAAATATCTCTCACTTATTTAAA | – | 0.0878 | – |
| ACAGACGAAGGAGCCGCAAAGAAGTAATTAAGGGATGAATAATCCCTCATTATAAATATCTCTCACTTATTTAAA | – | 0.278 | – |
| ACAGACGAAGGAGCCGCAAAGAAGTAATTAAGGGATGAATAATCCCTCCATATAAATATCTCTCACTTATTTAAA | – | 0.0749 | – |
| ACAGACGAAGGAGCCGCAAAGAAGTAATTAAGGGATGAATAATCCCTCGATATAAATATCTCTCACTTATTTAAA | 0.102 | 0.155 | – |
| ACAGACGAAGGAGCCGCAAAGAAGTAATTAAGGGATGAATAATCCCTCTATATAAATATCTCTCACTTATTTAAA | – | 0.193 | – |
| ACAGACGAAGGAGCCGCAAAGAAGTAATTAAGGGATGAATAATCCCTGAATATAAATATCTCTCACTTATTTAAA | – | 0.253 | – |
| ACAGACGAAGGAGCCGCAAAGAAGTAATTAAGGGATGAATAATCCGTCAATATAAATATCTCTCACTTATTTAAA | – | 0.179 | – |
| ACAGACGAAGGAGCCGCAAAGAAGTAATTAAGGGATGAATAATCCTTCAATATAAATATCTCTCACTTATTTAAA | 0.188 | 0.187 | – |

| Sequence | cleaved RNA product abundance [1] | cleaved RNA product abundance [2] | cleaved RNA product abundance (experiment (reporter, strain, medium): exp 6: tetM reporter, strain 168) |
| --- | --- | --- | --- |
| ACAGACGAAGGAGCCGCAAAGAAGTAATTAAGGGATGAATAATCGCTCAATATAAATATCTCTCACTTATTTAAA | – | 0.0828 | – |
| ACAGACGAAGGAGCCGCAAAGAAGTAATTAAGGGATGAATAATCTCTCAATATAAATATCTCTCACTTATTTAAA | 0.213 | 0.244 | – |
| ACAGACGAAGGAGCCGCAAAGAAGTAATTAAGGGATGAATAATGCCTCAATATAAATATCTCTCACTTATTTAAA | – | 0.164 | – |
| ACAGACGAAGGAGCCGCAAAGAAGTAATTAAGGGATGAATAATTCCTCAATATAAATATCTCTCACTTATTTAAA | – | 0.263 | – |
| ACAGACGAAGGAGCCGCAAAGAAGTAATTAAGGGATGAATACTCCCTCAATATAAATATCTCTCACTTATTTAAA | – | 0.324 | – |
| ACAGACGAAGGAGCCGCAAAGAAGTAATTAAGGGATGAATATTCCCTCAATATAAATATCTCTCACTTATTTAAA | – | 0.293 | – |
| ACAGACGAAGGAGCCGCAAAGAAGTAATTAAGGGATGAATCATCCCTCAATATAAATATCTCTCACTTATTTAAA | – | 0.314 | – |
| ACAGACGAAGGAGCCGCAAAGAAGTAATTAAGGGATGAATGATCCCTCAATATAAATATCTCTCACTTATTTAAA | 0.134 | – | – |
| ACAGACGAAGGAGCCGCAAAGAAGTAATTAAGGGATGAATTATCCCTCAATATAAATATCTCTCACTTATTTAAA | – | 0.355 | – |
| ACAGACGAAGGAGCCGCAAAGAAGTAATTAAGGGATGACTAATCCCTCAATATAAATATCTCTCACTTATTTAAA | 0.123 | 0.289 | – |
| ACAGACGAAGGAGCCGCAAAGAAGTAATTAAGGGATGCATAATCCCTCAATATAAATATCTCTCACTTATTTAAA | 0.186 | 0.288 | – |
| ACAGACGAAGGAGCCGCAAAGAAGTAATTAAGGGATGTATAATCCCTCAATATAAATATCTCTCACTTATTTAAA | – | 0.346 | – |
| ACAGACGAAGGAGCCGCAAAGAAGTAATTAAGGGATTAATAATCCCTCAATATAAATATCTCTCACTTATTTAAA | – | 0.379 | – |
| ACAGACGAAGGAGCCGCAAAGAAGTAATTAAGGGCTGAATAATCCCTCAATATAAATATCTCTCACTTATTTAAA | 0.161 | 0.165 | – |
| ACAGACGAAGGAGCCGCAAAGAAGTAATTAAGGGGTGAATAATCCCTCAATATAAATATCTCTCACTTATTTAAA | – | 0.308 | – |
| ACAGACGAAGGAGCCGCAAAGAAGTAATTAAGGGTTGAATAATCCCTCAATATAAATATCTCTCACTTATTTAAA | 0.0812 | 0.162 | – |
| ACAGACGAAGGAGCCGCAAAGAAGTAATTAAGGTATGAATAATCCCTCAATATAAATATCTCTCACTTATTTAAA | 0.0974 | 0.112 | – |
| ACAGACGAAGGAGCCGCAAAGAAGTAATTAAGGTATTAATAATCCCTCAATATAAATATCTCTCACTTATTTAAA | – | 0.0968 | – |
| ACAGACGAAGGAGCCGCAAAGAAGTAATTAAGTGATGAATAATCCCTCAATATAAATATCTCTCACTTATTTAAA | – | 0.0789 | – |
